For 3 substances, other, Kd and stoichiometry N results are on record in PMC6389498, “Control of Bacterial Virulence through the Peptide Signature of the Habitat” (Cell Reports, 2019).

By Kd is commonly meant a measure of binding affinity in units of concentration. In general, stoichiometry N refers to a count of units in the complex or per binding partner.

Test [1] deals with PrfA (recombinant PrfA^WT from E. coli BL21(pET28aprfA^WT), used in the biophysical assays) (Listeria monocytogenes) (UniProt P22262).
The target is the same in test [2]. The test is described as follows: ITC; GE MicroCal iTC200; 100 uM PrfA in the cell, 2 uL of 250 uM peptide injected every 60 s; 50 mM Tris pH 7.5, 500 mM NaCl; one-site model.
For test [3], the target named is PrfA (full-length PrfA^WT with two non-native N-terminal residues GA after TEV cleavage, used for crystallization) (Listeria monocytogenes) (UniProt P22262). The test is described as follows: crystal structure.

PrfA (recombinant PrfA^WT from E. coli BL21(pET28aprfA^WT), used in the biophysical assays) (Listeria monocytogenes), sequence (P22262 whole entry): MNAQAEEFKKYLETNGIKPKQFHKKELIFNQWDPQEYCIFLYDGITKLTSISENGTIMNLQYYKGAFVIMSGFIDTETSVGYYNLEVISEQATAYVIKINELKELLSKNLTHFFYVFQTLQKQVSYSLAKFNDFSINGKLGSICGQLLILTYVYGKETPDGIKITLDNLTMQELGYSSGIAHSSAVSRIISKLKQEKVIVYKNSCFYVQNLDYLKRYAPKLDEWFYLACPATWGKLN
PrfA (full-length PrfA^WT with two non-native N-terminal residues GA after TEV cleavage, used for crystallization), sequence (P22262 1-237, tags left off): as the sequence (P22262 whole entry) above

On to “LL peptide (Leu dipeptide, L-leucylleucine)”, for which the other in test [1] is 93%. The Kd in test [2] amounted to 25 µM.
For “PrfA (full-length PrfA^WT with two non-native N-terminal residues GA after TEV cleavage, used for crystallization) (from UniProt P22262 1-237) (natural protein)”, the stoichiometry N in test [3] stood at 2.
Turning to LLL peptide (Leu tripeptide), the other in test [1] was found to be 87%. Also, in test [2], the dissociation constant Kd amounted to 25 µM.
